Numbering of substitutions follows the chain as printed. In names and notes the source's numbering stands.
T1: human FcγRIIaH extracellular domain, C-terminal His-tag (human, UniProt P12318 34-217)
T1 construct: also called human FcγRIIa (type H); FcgRIIaH
T1 sequence: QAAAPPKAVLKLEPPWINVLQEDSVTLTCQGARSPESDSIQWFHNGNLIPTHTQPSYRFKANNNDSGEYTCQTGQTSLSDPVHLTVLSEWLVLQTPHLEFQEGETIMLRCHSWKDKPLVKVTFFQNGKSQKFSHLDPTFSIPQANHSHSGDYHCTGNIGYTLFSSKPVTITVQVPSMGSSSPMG

T2: human FcγRIIaR extracellular domain, C-terminal His-tag (human, UniProt P12318 34-217)
T2 construct: also called human FcγRIIa (type R); FcgRIIaR
T2 chain: T1 sequence with H134R

T3: human FcγRIIb extracellular domain, C-terminal His-tag (human, UniProt P31994 43-217)
T3 construct: also called FcgRIIb (human)
T3 sequence: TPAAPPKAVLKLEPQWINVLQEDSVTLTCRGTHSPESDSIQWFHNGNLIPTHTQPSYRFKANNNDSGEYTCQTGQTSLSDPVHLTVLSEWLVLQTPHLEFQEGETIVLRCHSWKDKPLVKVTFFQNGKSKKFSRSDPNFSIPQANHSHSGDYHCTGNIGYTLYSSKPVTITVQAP

B1: GpH7-B3 variant G236N/GpL16-k0 (antibody, human IgG1, kappa)
heavy: not shown
light: DIVMTQSPLSLPVTPGEPASISCQASESLVHSNRNTYLHWYLQKPGQSPQLLIYKVSNRFSGVPDRFSGSGSGTDFTLKISRVEAEDVGVYYCSQNTHVPPTFGQGTKVEIERTVAAPSVFIFPPSDEQLKSGTASVVCLLNNFYPREAKVQWKVDNALQSGNSQESVTEQDSKDSTYSLSSTLTLSKADYEKHKVYACEVTHQGLSSPVTKSFNRGEC
B2: GpH7-B3 variant K334I/GpL16-k0 (antibody, human IgG1, kappa)
heavy: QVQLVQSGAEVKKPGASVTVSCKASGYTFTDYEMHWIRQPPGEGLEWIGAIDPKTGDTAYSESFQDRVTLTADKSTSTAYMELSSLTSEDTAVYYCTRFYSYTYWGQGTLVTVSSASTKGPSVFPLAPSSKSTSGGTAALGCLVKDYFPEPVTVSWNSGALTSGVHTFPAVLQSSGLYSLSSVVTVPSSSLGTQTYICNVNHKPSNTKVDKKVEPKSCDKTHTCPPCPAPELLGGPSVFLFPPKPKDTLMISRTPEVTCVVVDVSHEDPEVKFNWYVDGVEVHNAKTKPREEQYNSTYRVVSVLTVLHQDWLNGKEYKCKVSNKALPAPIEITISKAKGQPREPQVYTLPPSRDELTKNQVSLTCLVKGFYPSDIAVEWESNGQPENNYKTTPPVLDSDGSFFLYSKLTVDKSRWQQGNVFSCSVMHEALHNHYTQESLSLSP
light: B1 light
B3: GpH7-B3 variant I332D/GpL16-k0 (antibody, human IgG1, kappa)
heavy: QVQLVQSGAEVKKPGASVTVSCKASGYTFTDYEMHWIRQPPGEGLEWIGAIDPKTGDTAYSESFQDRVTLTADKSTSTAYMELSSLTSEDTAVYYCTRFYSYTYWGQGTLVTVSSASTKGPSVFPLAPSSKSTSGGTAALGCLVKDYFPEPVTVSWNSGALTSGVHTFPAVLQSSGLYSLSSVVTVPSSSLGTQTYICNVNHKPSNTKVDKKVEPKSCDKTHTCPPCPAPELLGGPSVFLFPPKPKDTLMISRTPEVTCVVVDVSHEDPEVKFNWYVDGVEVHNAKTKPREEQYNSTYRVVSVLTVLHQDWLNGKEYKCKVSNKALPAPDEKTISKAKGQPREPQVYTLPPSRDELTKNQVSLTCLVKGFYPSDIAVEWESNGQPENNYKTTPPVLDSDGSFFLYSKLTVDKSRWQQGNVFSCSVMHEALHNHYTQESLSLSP
light: B1 light
B4: GpH7-B3 variant Q295L/GpL16-k0 (antibody, human IgG1, kappa)
heavy: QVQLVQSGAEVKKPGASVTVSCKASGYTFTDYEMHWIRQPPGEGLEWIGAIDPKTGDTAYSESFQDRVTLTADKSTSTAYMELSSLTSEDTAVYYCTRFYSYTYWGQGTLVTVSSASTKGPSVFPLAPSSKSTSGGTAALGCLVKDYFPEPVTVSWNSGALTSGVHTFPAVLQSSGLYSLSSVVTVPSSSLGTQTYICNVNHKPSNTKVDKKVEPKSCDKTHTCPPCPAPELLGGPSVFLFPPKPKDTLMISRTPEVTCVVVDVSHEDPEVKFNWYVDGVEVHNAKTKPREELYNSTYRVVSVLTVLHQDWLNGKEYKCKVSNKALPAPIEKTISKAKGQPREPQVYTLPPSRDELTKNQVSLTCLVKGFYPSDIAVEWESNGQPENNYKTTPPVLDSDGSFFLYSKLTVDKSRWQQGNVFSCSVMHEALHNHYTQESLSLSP
light: B1 light
B5: GpH7-B3 variant N325E/GpL16-k0 (antibody, human IgG1, kappa)
heavy: not shown
light: B1 light
B6: GpH7-B3 variant G236A/GpL16-k0 (antibody, human IgG1, kappa)
heavy: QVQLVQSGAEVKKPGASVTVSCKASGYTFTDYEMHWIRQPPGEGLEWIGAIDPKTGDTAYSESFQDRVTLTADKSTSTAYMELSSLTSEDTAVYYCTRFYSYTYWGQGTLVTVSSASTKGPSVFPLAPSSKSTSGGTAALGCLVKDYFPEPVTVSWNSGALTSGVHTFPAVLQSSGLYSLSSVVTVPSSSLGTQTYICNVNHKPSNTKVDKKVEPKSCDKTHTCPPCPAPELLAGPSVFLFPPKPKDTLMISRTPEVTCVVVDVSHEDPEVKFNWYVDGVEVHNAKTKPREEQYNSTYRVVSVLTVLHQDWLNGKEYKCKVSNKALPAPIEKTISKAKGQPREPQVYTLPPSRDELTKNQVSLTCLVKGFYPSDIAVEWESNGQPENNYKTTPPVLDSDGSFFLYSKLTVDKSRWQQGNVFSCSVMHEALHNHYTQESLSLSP
light: B1 light
B7: GpH7-B3 variant K326T/GpL16-k0 (antibody, human IgG1, kappa)
heavy: not shown
light: B1 light
B8: GpH7-B3 variant G236S/GpL16-k0 (antibody, human IgG1, kappa)
heavy: not shown
light: B1 light
B9: GpH7-B3 variant K334Y/GpL16-k0 (antibody, human IgG1, kappa)
heavy: not shown
light: B1 light
B10: GpH7-B3 variant K334V/GpL16-k0 (antibody, human IgG1, kappa)
heavy: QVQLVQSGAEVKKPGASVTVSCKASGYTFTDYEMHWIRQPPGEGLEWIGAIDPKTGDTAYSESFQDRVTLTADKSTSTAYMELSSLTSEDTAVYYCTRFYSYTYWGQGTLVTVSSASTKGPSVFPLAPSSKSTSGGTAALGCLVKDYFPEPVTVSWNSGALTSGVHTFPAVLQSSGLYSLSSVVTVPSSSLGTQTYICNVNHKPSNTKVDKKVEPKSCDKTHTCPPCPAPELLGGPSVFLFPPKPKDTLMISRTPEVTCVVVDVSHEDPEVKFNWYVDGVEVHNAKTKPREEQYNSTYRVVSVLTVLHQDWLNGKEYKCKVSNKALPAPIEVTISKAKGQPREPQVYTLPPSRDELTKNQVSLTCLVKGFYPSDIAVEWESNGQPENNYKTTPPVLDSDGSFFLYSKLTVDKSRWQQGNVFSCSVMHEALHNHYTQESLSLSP
light: B1 light
B11: GpH7-B3 variant P238Q/GpL16-k0 (antibody, human IgG1, kappa)
heavy: not shown
light: B1 light
B12: GpH7-B3 variant A327I/GpL16-k0 (antibody, human IgG1, kappa)
heavy: not shown
light: B1 light
B13: GpH7-B3 variant K334D/GpL16-k0 (antibody, human IgG1, kappa)
heavy: not shown
light: B1 light
B14: GpH7-B3 variant L235W/GpL16-k0 (antibody, human IgG1, kappa)
heavy: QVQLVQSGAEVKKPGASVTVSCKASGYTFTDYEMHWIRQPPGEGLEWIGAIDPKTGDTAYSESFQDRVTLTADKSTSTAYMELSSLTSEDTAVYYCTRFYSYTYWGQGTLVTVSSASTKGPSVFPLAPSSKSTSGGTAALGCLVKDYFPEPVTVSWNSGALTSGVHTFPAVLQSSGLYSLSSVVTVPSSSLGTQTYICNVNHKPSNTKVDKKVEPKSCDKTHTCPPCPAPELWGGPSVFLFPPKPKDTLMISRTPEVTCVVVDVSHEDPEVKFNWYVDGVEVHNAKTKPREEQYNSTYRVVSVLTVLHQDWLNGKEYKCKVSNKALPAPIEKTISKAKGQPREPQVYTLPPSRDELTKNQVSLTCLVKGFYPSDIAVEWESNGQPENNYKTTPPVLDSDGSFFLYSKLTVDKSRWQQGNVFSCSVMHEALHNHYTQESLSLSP
light: B1 light
B15: GpH7-B3 variant K334M/GpL16-k0 (antibody, human IgG1, kappa)
heavy: not shown
light: B1 light
B16: GpH7-B3 variant H268E/GpL16-k0 (antibody, human IgG1, kappa)
heavy: not shown
light: B1 light
B17: GpH7-B3 variant L234Y/GpL16-k0 (antibody, human IgG1, kappa)
heavy: not shown
light: B1 light
B18: GpH7-B3 variant G236E/GpL16-k0 (antibody, human IgG1, kappa)
heavy: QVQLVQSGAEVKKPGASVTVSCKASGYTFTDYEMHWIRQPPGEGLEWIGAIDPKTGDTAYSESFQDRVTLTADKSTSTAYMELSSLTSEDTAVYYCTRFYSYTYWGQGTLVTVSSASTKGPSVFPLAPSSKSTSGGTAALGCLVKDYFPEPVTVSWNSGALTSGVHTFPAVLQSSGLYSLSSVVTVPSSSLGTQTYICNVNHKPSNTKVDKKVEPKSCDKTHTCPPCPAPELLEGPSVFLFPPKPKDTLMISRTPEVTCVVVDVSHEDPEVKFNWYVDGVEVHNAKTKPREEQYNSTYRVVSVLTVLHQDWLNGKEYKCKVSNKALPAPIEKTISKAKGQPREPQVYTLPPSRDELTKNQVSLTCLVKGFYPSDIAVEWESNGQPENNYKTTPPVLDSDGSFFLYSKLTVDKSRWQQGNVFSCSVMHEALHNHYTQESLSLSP
light: B1 light
B19: GpH7-B3 variant L234W/GpL16-k0 (antibody, human IgG1, kappa)
heavy: not shown
light: B1 light
B20: GpH7-B3 variant S239P/GpL16-k0 (antibody, human IgG1, kappa)
heavy: not shown
light: B1 light
B21: GpH7-B3 variant S239V/GpL16-k0 (antibody, human IgG1, kappa)
heavy: not shown
light: B1 light
B22: GpH7-B3 variant S239N/GpL16-k0 (antibody, human IgG1, kappa)
heavy: not shown
light: B1 light
B23: GpH7-B3 variant P331E/GpL16-k0 (antibody, human IgG1, kappa)
heavy: not shown
light: B1 light
B24: GpH7-B3 variant H268D/GpL16-k0 (antibody, human IgG1, kappa)
heavy: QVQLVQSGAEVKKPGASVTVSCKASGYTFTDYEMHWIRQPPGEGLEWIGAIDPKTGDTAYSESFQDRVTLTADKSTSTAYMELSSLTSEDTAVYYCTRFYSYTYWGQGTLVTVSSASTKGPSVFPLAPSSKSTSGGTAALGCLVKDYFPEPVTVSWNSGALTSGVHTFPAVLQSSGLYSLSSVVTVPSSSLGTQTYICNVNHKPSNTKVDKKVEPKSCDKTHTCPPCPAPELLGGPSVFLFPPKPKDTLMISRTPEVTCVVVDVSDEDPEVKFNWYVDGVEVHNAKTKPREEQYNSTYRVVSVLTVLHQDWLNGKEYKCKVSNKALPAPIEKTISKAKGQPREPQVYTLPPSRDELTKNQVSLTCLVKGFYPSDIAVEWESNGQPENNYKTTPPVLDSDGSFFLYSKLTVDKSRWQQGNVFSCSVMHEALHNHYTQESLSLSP
light: B1 light
B25: GpH7-B3 variant S239I/GpL16-k0 (antibody, human IgG1, kappa)
heavy: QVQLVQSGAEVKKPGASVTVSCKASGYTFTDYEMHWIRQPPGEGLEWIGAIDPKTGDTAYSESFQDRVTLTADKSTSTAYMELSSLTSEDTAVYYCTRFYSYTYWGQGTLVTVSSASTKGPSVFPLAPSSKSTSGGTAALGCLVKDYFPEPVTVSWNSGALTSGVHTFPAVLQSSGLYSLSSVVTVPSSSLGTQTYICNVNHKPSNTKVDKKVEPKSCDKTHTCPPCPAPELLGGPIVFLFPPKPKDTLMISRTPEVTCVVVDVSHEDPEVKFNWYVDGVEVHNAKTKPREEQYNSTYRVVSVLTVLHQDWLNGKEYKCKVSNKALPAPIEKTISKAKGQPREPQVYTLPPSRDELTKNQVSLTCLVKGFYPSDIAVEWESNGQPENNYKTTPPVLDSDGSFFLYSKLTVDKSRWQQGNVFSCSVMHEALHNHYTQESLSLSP
light: B1 light
B26: GpH7-B3 variant L328T/GpL16-k0 (antibody, human IgG1, kappa)
heavy: not shown
light: B1 light
B27: GpH7-B3 variant G236D/GpL16-k0 (antibody, human IgG1, kappa)
heavy: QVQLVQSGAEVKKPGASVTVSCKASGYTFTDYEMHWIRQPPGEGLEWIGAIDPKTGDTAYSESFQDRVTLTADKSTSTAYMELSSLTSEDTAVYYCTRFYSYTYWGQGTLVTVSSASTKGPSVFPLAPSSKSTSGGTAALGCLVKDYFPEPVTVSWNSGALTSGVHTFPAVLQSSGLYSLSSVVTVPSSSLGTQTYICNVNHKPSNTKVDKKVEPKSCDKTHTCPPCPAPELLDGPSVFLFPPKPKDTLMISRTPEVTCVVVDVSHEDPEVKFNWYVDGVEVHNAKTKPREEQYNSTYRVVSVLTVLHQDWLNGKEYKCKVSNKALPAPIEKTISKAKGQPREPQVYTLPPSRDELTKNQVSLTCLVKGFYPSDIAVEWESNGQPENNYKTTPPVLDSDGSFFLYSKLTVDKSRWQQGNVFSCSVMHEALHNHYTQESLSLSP
light: B1 light
B28: GpH7-B3 variant G237D/GpL16-k0 (antibody, human IgG1, kappa)
heavy: not shown
light: B1 light
B29: GpH7-B3 variant P271G/GpL16-k0 (antibody, human IgG1, kappa)
heavy: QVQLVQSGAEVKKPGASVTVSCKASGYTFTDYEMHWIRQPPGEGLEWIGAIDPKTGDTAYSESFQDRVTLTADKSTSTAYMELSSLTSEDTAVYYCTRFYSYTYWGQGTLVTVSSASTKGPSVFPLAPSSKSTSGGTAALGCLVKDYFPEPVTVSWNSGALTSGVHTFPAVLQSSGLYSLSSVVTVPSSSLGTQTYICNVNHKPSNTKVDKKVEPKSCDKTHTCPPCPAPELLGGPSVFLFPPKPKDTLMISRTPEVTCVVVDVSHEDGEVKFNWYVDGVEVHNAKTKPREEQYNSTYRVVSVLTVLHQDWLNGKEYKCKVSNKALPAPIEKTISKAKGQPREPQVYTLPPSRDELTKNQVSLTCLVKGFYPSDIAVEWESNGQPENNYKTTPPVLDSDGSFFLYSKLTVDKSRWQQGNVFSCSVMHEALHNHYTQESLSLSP
light: B1 light
B30: GpH7-B3 variant P271D/GpL16-k0 (antibody, human IgG1, kappa)
heavy: not shown
light: B1 light

Target: T1, human FcγRIIaH extracellular domain, …
Experiment: SPR 25C; FcgR bound per captured antibody, relative to parent B3
Experimental: (§1) These Fc variants are referred to as B3 variants. B3 variants were expressed and the binding of protein-A purified antibodies to each FcγR (FcγRIIa type H. FcγRIIa type R, FcγRIIb, and FcγRIIIaF) was comprehensively evaluated as follows. Analysis of interaction between each altered antibody and the Fcγ receptor prepared as mentioned above was carried out using BIACORE® T100 (GE Healthcare), BIACORE® T200 (GE Healthcare), BIACORE® A100, or BIACORE® 4000. HBS-EP+(GE Healthcare) was used as the running buffer, and the measurement temperature was set to 25° C. Chips produced by immobilizing Protein A (Thermo Scientific), Protein A/G (Thermo Scientific), or Protein L (ACTIGEN or BioVision) by the amine coupling method to a Series S sensor Chip CM5 or CM4 (GE Healthcare) were used. After capturing of antibodies of interest onto these sensor chips, an Fcγ receptor diluted with the running buffer was allowed to interact, the amount bound to an antibody was measured. However, since the amount of Fcγ receptor bound depends on the amount of the captured antibodies, the amount of Fcγ receptor bound was divided by the amount of each antibody captured to obtain corrected values, and these values were compared. Furthermore, antibodies captured onto the chips were washed by 10 mM glycine-HCl pH1.5, and the chips were regenerated and used repeatedly. […] The value obtained by multiplying this value by 100 was used as an indicator of the relative FcγR-binding activity of each variant.

Row | Binding to human FcgRs (parent B3 = 100) | Binder
1 | 54 | B1
2 | 169 | B2
3 | 129 | B3
4 | 128 | B4
5 | 49 | B5
6 | 165 | B6
7 | 138 | B7
8 | 147 | B8
9 | 157 | B9
10 | 172 | B10
11 | 19 | B11
12 | 37 | B12
13 | 97 | B13
14 | 136 | B14
15 | 151 | B15
16 | 169 | B16
17 | 38 | B17
18 | 142 | B18
19 | 64 | B19
20 | 49 | B20
21 | 79 | B21
22 | 99 | B22
23 | 96 | B23
24 | 173 | B24
25 | 82 | B25
26 | 156 | B26
27 | 109 | B27
28 | 74 | B28
29 | 152 | B29

Target: T2, human FcγRIIaR extracellular domain, …
Experiment: as above
Experimental: as §1

Row | Binding to human FcgRs (parent B3 = 100) | Binder
30 | 81 | B1
31 | 137 | B2
32 | 139 | B3
33 | 148 | B4
34 | 13 | B5
35 | 168 | B6
36 | 127 | B7
37 | 161 | B8
38 | 131 | B9
39 | 132 | B10
40 | 4 | B11
41 | 12 | B12
42 | 72 | B13
43 | 128 | B14
44 | 127 | B15
45 | 132 | B16
46 | 50 | B17
47 | 131 | B18
48 | 63 | B19
49 | 71 | B21
50 | 80 | B22
51 | 67 | B23
52 | 142 | B24
53 | 75 | B25
54 | 135 | B26
55 | 91 | B27
56 | 55 | B30
57 | 0 | B28
58 | 130 | B29

Target: T3, human FcγRIIb extracellular domain, …
Experiment: as above
Experimental: as §1

Row | Binding to human FcgRs (parent B3 = 100) | Binder
59 | 75 | B1
60 | 174 | B2
61 | 198 | B3
62 | 156 | B4
63 | 40 | B5
64 | 94 | B6
65 | 195 | B7
66 | 87 | B8
67 | 160 | B9
68 | 184 | B10
69 | 43 | B11
70 | 46 | B12
71 | 108 | B13
72 | 130 | B14
73 | 148 | B15
74 | 283 | B16
75 | 55 | B17
76 | 117 | B18
77 | 90 | B19
78 | 61 | B20
79 | 107 | B21
80 | 124 | B22
81 | 100 | B23
82 | 307 | B24
83 | 108 | B25
84 | 179 | B26
85 | 212 | B27
86 | 110 | B30
87 | 95 | B28
88 | 252 | B29

Source: patent publication US20200317768A1 (published 2020)
